Assay results taken from US20240252667A1 (ARMAGEN, published 2024).
“And” between values parts separate entries of the source, which are not always exact repeats. Identical values can stand only once. Values belong to the binder of their own block, whether it stands above or below them.

Assays:
[1] = biological target: T1, human insulin receptor extracellular domain (HIR ECD) (human, UniProt P06213 28-956, limits assumed); assay: ELISA, HIR ECD plated; COS-derived protein; normalised with MW 318 kDa
T1 construct: extracellular domain; Plated on 96-well dishes in the ELISA
Description: (§1) The COS-derived HIR Ab-HEXA fusion protein (also designated HIRMAb-HEXA), following purification with protein A affinity chromatography, was assessed for purity by reducing sodium dodecysulfate polyacrylamide gel electrophoresis (SDS-PAGE) as shown in FIG. 10. Only the HC and LC proteins are detected for either the HIRMAb alone or the HIRMAb-HEXA fusion protein. For the HIRMAb alone the higher molecular weight (MW) band is the HC and the lower MW band is the LC. For the HIRMAb-HEXA fusion protein, the higher MW band is the […]. The identity of the fusion protein was verified by Western blotting using primary antibodies to either human IgG (FIG. 11, left panel) or human HEXA (FIG. 11, right panel). The molecular weight (MW) of the HIRMAb-HEXA heavy and light chains are estimated by linear regression based on the migration of the MW standards. […] The affinity of the fusion protein for the HIR extracellular domain (ECD) was determined with an ELISA. […] The HIR ECD was plated on Nunc-Maxisorb 96 well dishes and the binding of the HIR Ab, or the HIR Ab-HEXA fusion protein, to the HIR ECD was detected with a secondary antibody, followed by binding with an alkaline phosphatase detector reagent. […]

[2] = biological target: T1, human insulin receptor extracellular …; assay: ELISA, HIR ECD plated; CHO-derived protein
Description: The estimated MW of the hetero-tetrameric HIRMAb-HEXA fusion protein shown in FIG. 2 is 318 kDa, based on migration in the SDS-PAGE of the Western blot. The affinity of the fusion protein for the HIR extracellular domain (ECD) was determined with an ELISA. CHO cells permanently transfected with the HIR ECD were grown in serum free media (SFM), and the HIR ECD was purified with a wheat germ agglutinin affinity column, as previously described in Coloma et al. (2000) Pharm Res, 17:266-274. The HIR ECD was plated on Nunc-Maxisorb 96 well dishes and the binding of the HIR Ab, or the HIR Ab-HEXA fusion protein, to the HIR ECD was detected with a secondary antibody, followed by binding with an alkaline phosphatase detector reagent. […] The MW of the HIR Ab is 150 kDa, and the MW of the HIR Ab-fusion protein is 318 kDa.
The CHO line producing the HIR Ab-HEXA fusion protein was generated from CHO cells following 2 rounds of DC as described above. The accession cell line was propagated in a 2L shake flask in SFM on an orbital shaker and the CHO-derived fusion protein was purified by protein A affinity chromatography. […] The potency of the CHO-derived fusion protein as assessed with the HIR ECD binding ELISA, as described above.

[3] = biological target: T1, human insulin receptor extracellular …; assay: ELISA, HIR ECD plated, secondary antibody and alkaline phosphatase detection; COS-derived protein
Description: as §1

[4] = biological target: T1, human insulin receptor extracellular …; assay: ELISA, recombinant HIR ECD plated, secondary antibody and alkaline phosphatase detection
Description: (§2) The potency of the CHO-derived fusion protein was assessed with the HIR ECD binding ELISA. The affinity of the fusion protein for the HIR extracellular domain (ECD) was determined with an ELISA. Recombinant HIR ECD was plated on Nunc-Maxisorb 96 well dishes and the binding of the HIR Ab, or the HIR Ab-PPT1 fusion protein, to the HIR ECD was detected with a secondary antibody, followed by binding with an alkaline phosphatase detector reagent. […] The MW of the HIR Ab is 150 kDa, and the MW of the HIR Ab-fusion protein is 246 kDa.

[5] = biological target: T1, human insulin receptor extracellular …; assay: ELISA, HIR ECD plated, secondary antibody and alkaline phosphatase detection
Description: as §1

[6] = biological target: T1, human insulin receptor extracellular …; assay: ELISA, HIR ECD plated (HIR receptor assay)
[7] = biological target: T1, human insulin receptor extracellular …; assay: ELISA, HIR ECD plated, biotinylated goat anti-human IgG detection
[8] = biological target: T1, human insulin receptor extracellular …; assay: ELISA, recombinant HIR ECD plated; normalised with MW 150 kDa
Description: as §2

[9] = biological target: T1, human insulin receptor extracellular …; assay: ELISA, HIR ECD plated; normalised with MW 150 kDa
Description: as §1

[10] = biological target: T1, human insulin receptor extracellular …; assay: ELISA, recombinant HIR ECD plated, secondary antibody and alkaline phosphatase detection; CHO-derived HIR Ab
Description: as §2, with “The” for “The potency of the CHO-derived fusion protein was assessed with the HIR ECD binding ELISA. The”, “Ab-ASM” for “Ab-PPT1”, “320” for “246”

[11] = biological target: T1, human insulin receptor extracellular …; assay: ELISA, recombinant HIR ECD plated; CHO-derived protein; normalised with MW 246 kDa
Description: as §2

[12] = biological target: T1, human insulin receptor extracellular …; assay: ELISA, recombinant HIR ECD plated, secondary antibody and alkaline phosphatase detection; CHO-derived protein
Description: as §2, with “The” for “The potency of the CHO-derived fusion protein was assessed with the HIR ECD binding ELISA. The”, “Ab-ASM” for “Ab-PPT1”, “320” for “246”
as §2

[13] = biological target: T1, human insulin receptor extracellular …; assay: ELISA, recombinant HIR ECD plated; CHO-derived protein; normalised with MW 320 kDa
Description: as §2, with “The” for “The potency of the CHO-derived fusion protein was assessed with the HIR ECD binding ELISA. The”, “Ab-ASM” for “Ab-PPT1”, “320” for “246”

B3: HIR Ab-LL-PPT1 fusion protein (31-amino acid linker) (antibody, human IgG1, human IgG3, kappa)
heavy: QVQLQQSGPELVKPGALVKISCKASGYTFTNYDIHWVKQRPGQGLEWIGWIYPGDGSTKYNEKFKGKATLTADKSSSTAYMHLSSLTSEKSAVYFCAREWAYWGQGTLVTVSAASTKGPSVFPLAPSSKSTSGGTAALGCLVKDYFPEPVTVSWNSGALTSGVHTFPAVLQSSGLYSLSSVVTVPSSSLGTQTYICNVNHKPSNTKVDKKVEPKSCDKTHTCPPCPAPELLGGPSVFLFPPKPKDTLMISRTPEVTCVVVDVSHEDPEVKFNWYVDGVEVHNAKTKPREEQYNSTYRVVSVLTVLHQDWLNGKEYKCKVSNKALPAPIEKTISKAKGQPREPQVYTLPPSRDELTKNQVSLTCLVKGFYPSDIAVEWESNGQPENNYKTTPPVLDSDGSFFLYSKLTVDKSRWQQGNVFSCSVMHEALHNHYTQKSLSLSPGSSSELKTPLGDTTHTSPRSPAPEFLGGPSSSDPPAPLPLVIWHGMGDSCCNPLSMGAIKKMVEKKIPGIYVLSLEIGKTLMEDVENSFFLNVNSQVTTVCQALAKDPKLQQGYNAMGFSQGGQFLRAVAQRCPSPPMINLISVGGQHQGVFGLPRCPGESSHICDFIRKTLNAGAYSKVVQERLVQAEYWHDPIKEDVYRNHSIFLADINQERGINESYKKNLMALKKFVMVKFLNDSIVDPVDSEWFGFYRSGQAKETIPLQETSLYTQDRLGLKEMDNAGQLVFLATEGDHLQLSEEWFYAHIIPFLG
light: DIQMTQSPSSLSASLGERVSLTCRASQDIGGNLYWLQQGPDGTIKRLIYATSSLDSGVPKRFSGSRSGSDYSLTISSLESEDFVDYYCLQYSSSPWTFGGGTKMEIKRTVAAPSVFIFPPSDEQLKSGTASVVCLLNNFYPREAKVQWKVDNALQSGNSQESVTEQDSKDSTYSLSSTLTLSKADYEKHKVYACEVTHQGLSSPVTKSFNRGEC
notes: Hetero-tetramer, MW 246 kDa; The ELISA used CHO-derived protein; also called HIR Ab-PPT1; HIRMAb-PPT1
- EC50 [11]: 380 pM
- EC50 [12]: 0.094 µg/mL

B4: HIR Ab-ASM fusion protein (antibody, human IgG1, human IgG3, kappa)
heavy: not shown
light: DIQMTQSPSSLSASLGERVSLTCRASQDIGGNLYWLQQGPDGTIKRLIYATSSLDSGVPKRFSGSRSGSDYSLTISSLESEDFVDYYCLQYSSSPWTFGGGTKMEIKRTVAAPSVFIFPPSDEQLKSGTASVVCLLNNFYPREAKVQWKVDNALQSGNSQESVTEQDSKDSTYSLSSTLTLSKADYEKHKVYACEVTHQGLSSPVTKSFNRGECSSSELKTPLGDTTHTSPRSPAPEFLGGPSSSHPLSPQGHPARLHRIVPRLRDVFGWGNLTCPICKGLFTAINLGLKKEPNVARVGSVAIKLCNLLKIAPPAVCQSIVHLFEDDMVEVWRRSVLSPSEACGLLLGSTCGHWDIFSSWNISLPTVPKPPPKPPSPPAPGAPVSRILFLTDLHWDHDYLEGTDPDCADPLCCRRGSGLPPASRPGAGYWGEYSKCDLPLRTLESLLSGLGPAGPFDMVYWTGDIPAHDVWHQTRQDQLRALTTVTALVRKFLGPVPVYPAVGNHESTPVNSFPPPFIEGNHSSRWLYEAMAKAWEPWLPAEALRTLRIGGFYALSPYPGLRLISLNMNFCSRENFWLLINSTDPAGQLQWLVGELQAAEDRGDKVHIIGHIPPGHCLKSWSWNYYRIVARYENTLAAQFFGHTHVDEFEVFYDEETLSRPLAVAFLAPSATTYIGLNPGYRVYQIDGNYSGSSHVVLDHETYILNLTQANIPGAIPHWQLLYRARETYGLPNTLPTAWHNLVYRMRGDMQLFQTFWFLYHKGHPPSEPCGTPCRLATLCAQLSARADSPALCRHLMPDGSLPEAQSLWPRP
notes: Hetero-tetramer, MW 320 kDa; The ELISA used CHO-derived protein; also called HIRMAb-ASM; HIR Ab LC-ASM + HIR Ab HC
- EC50 [12]: 0.299 µg/mL
- EC50 [13]: 930 pM

Next, values leading:

- EC50 [1]: 350 pM
- EC50 [2]: 0.122 µg/mL
- EC50 [3]: 0.112 µg/mL
B1: HIR Ab-HEXA fusion protein (antibody, human IgG1, human IgG3, kappa)
heavy: not shown
light: DIQMTQSPSSLSASLGERVSLTCRASQDIGGNLYWLQQGPDGTIKRLIYATSSLDSGVPKRFSGSRSGSDYSLTISSLESEDFVDYYCLQYSSSPWTFGGGTKMEIKRTVAAPSVFIFPPSDEQLKSGTASVVCLLNNFYPREAKVQWKVDNALQSGNSQESVTEQDSKDSTYSLSSTLTLSKADYEKHKVYACEVTHQGLSSPVTKSFNRGECSSSELKTPLGDTTHTSPRSPAPEFLGGPSSSLWPWPQNFQTSDQRYVLYPNNFQFQYDVSSAAQPGCSVLDEAFQRYRDLLFGSGSWPRPYLTGKRHTLEKNVLVVSVVTPGCNQLPTLESVENYTLTINDDQCLLLSETVWGALRGLETFSQLVWKSAEGTFFINKTEIEDFPRFPHRGLLLDTSRHYLPLSSILDTLDVMAYNKLNVFHWHLVDDPSFPYESFTFPELMRKGSYNPVTHIYTAQDVKEVIEYARLRGIRVLAEFDTPGHTLSWGPGIPGLLTPCYSGSEPSGTFGPVNPSLNNTYEFMSTFFLEVSSVFPDFYLHLGGDEVDFTCWKSNPEIQDFMRKKGFGEDFKQLESFYIQTLLDIVSSYGKGYVVWQEVFDNKVKIQPDTIIQVWREDIPVNYMKELELVTKAGFRALLSAPWYLNRISYGPDWKDFYIVEPLAFEGTPEQKALVIGGEACMWGEYVDNTNLVPRLWPRAGAVAERLWSNKLTSDLTFAYERLSHFRCELLRRGVQAQPLNVGFCEQEFEQT
notes: also called HIRMAb-HEXA; HIR Ab LC-HEXA + HIR Ab HC

- EC50 [4]: 0.039 µg/mL
- EC50 [5]: 0.034 µg/mL
- EC50 [6]: 250 pM
- EC50 [7]: 770 pM
- EC50 [8]: 320 pM and 260 pM
- EC50 [9]: 230 pM
- EC50 [10]: 0.047 µg/mL
B2: chimeric HIR Ab (antibody to the human insulin receptor) (antibody, human IgG1, kappa)
heavy: not shown
light: DIQMTQSPSSLSASLGERVSLTCRASQDIGGNLYWLQQGPDGTIKRLIYATSSLDSGVPKRFSGSRSGSDYSLTISSLESEDFVDYYCLQYSSSPWTFGGGTKMEIKRTVAAPSVFIFPPSDEQLKSGTASVVCLLNNFYPREAKVQWKVDNALQSGNSQESVTEQDSKDSTYSLSSTLTLSKADYEKHKVYACEVTHQGLSSPVTKSFNRGEC
notes: also called HIRMAb; chimeric HIRMAb
